For one data set, the target named is ApoE4 (UniProt P02649 19-317, C130R). The experiment in a line: SPR.
In data set [1] the target is T1, CRP (UniProt P02741 19-224).
T1 sequence: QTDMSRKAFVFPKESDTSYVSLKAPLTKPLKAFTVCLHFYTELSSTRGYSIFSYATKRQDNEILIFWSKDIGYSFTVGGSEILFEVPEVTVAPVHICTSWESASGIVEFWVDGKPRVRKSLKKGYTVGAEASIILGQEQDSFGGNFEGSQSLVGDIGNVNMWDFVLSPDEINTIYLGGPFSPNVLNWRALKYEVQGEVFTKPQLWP
The data set is described as follows: EMSA. (In EMSA bound probe runs differently from free probe, usually more slowly.)

In another data set the target is Annexin 2 (UniProt P07355 2-339). The data set is described as follows: EMSA.
Sequence of Annexin 2 (P07355 2-339): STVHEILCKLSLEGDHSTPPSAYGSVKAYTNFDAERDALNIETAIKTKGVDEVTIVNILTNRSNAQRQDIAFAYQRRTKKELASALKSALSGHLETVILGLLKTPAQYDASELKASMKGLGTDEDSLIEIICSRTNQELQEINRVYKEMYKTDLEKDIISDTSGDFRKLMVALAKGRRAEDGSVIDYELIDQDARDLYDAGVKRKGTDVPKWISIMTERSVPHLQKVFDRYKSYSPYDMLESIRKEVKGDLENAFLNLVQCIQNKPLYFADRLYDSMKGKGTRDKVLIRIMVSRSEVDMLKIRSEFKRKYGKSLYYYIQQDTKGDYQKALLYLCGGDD
The target of the next data set is TNF-alpha (UniProt P01375 77-233). The data set is described as follows: EMSA.
Sequence of TNF-alpha (P01375 77-233): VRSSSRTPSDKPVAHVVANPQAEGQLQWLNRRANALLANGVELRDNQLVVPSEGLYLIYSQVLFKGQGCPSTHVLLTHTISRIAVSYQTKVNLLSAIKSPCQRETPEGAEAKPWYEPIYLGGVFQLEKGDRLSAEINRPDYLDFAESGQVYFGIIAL
For the next data set, the target named is T2, PLGF (Homo sapiens, UniProt P49763 19-141+214-221, internal_change).
T2 sequence: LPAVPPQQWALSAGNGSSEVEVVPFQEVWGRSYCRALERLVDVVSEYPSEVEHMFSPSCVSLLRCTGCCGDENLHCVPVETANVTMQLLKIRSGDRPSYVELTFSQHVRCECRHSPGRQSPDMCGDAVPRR
The data set is described as follows: SPR. For orientation: Surface plasmon resonance follows binding to a sensor surface in real time, without labels.

A further data set has as its target HGF (UniProt P14210;P14210 32-494;495-728). The experiment in a line: SPR.
Data set [2] has as its target T1, CRP. The data set is described as follows: SPR.

Sequence of HGF (P14210 32-494, chain 1 of 2): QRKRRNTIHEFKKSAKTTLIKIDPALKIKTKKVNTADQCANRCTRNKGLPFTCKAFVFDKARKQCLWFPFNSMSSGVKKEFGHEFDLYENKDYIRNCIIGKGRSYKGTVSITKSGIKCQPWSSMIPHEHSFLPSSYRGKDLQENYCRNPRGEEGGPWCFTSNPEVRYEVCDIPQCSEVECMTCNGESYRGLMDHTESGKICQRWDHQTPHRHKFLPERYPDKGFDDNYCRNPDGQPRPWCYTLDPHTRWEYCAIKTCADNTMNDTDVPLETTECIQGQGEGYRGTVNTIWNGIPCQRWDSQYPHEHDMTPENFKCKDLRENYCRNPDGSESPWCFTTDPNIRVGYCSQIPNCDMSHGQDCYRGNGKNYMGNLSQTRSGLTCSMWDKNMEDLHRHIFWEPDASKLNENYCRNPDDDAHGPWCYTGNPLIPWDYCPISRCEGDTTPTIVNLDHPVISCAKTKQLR
Sequence of HGF (P14210 495-728, chain 2 of 2): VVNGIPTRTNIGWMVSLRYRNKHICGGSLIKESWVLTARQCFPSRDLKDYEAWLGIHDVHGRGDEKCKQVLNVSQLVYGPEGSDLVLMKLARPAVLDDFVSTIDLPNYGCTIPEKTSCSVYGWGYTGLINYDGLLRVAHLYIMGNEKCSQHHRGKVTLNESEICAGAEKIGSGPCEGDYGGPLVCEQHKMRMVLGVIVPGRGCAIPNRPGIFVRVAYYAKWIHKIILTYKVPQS
Sequence of ApoE4 (P02649 19-317 C130R): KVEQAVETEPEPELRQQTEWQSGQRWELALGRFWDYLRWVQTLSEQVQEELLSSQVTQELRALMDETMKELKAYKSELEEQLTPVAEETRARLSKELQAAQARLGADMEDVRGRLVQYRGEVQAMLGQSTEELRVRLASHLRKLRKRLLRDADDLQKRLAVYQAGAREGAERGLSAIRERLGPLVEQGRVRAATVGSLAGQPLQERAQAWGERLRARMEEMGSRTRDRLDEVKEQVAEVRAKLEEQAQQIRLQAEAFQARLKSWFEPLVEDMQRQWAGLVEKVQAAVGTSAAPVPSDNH

B1: ApoE4-PQS8 (structured_DNA)
DNA: GGGCTGGGATGGGGCGGG
With B1, the binding result in the data set with ApoE4 is given as “no binding”.

B2: CRP-PQS2 (ssDNA)
DNA: GGGGACTGTTGTGGGGTGGGGGGAGGGGGG
B2: the binding result with CRP [1] was “binds”.

B3: Annexin2-PQS7 (structured_DNA)
DNA: GGGCCGGGAGGGTGCAGGG
With B3, the binding result with Annexin 2 is “binds”.

B4: Annexin2-PQS6 (structured_DNA)
DNA: GGGGAGGCGGGGCGGGGCGGGG
On to B4, for which the binding result with Annexin 2 was “binds”.

B5: TNFa-PQS2 (structured_DNA)
DNA: GGGCATGGGGACGGGGTTCAGCCTCCAGGG
B5: in the data set with TNF-alpha, the binding result is reported as “no binding”.

B6: PLGF-PQS4 (structured_DNA)
DNA: GGGCGGGTGTCCCGGGTGTCGGG
With B6, the binding result with PLGF is listed as “no binding”.

B7: Annexin2-PQS1 (structured_DNA)
DNA: GGACCTGCGGCTCCCTGGGCGG
As to B7, the binding result in the data set with Annexin 2 is on record as “binds”.

B8: PLGF-PQS2 (structured_DNA)
DNA: GGGAGGGAGGGAGGG
As to B8, in the data set with PLGF, the binding result was “no binding”.

B9: ApoE4-PQS1 (structured_DNA)
DNA: GGTGGCGGAGG
Molecule B9 gave a Kd with ApoE4 of 60 nM.

B10: Annexin2-PQS5 (structured_DNA)
DNA: GGGCAGGGCCAGGGGCGCTGGG
Regarding B10, the binding result in the data set with Annexin 2 was “binds”.

B11: PLGF-PQS1 (structured_DNA)
DNA: GGGCGCCGAGGGGCAGGCGGGTCCCGGGG
Take B11: in the data set with PLGF, the binding result was “no binding”.

B12: TNFa-PQS3 (structured_DNA)
DNA: GGGTCCGAACAGGGACGATGGGGGTGGG
For the molecule B12, the binding result in the data set with TNF-alpha is “no binding”.

B13: Annexin2-PQS2 (structured_DNA)
DNA: GGCGCCTGGCGCGTCTGGAATGCGG
On to B13, for which the binding result with Annexin 2 was “binds”.

B14: HGF-PQS2 (ssDNA)
DNA: GGAATAGGGAAGGTTAGCAGG
On to B14, for which the binding result with HGF is given as “no binding”.

B15: TNFa-PQS1 (structured_DNA)
DNA: GGGTTTGGGTTTGGGGGTAGGG
On to B15, for which, in the data set with TNF-alpha, the binding result is given as “no binding”.

B16: CRP-PQS1 (ssDNA)
DNA: GGGATCGTGGAGTTCTGGGTAGATGGGAAGCCCAGGG
On to B16, for which, in the data set with CRP [2], the binding result is “no binding”.

B17: TNFa-PQS4 (structured_DNA)
DNA: GGGAGAGAGGGAGGGAGGTCGTTTGGG
For B17, the binding result in the data set with TNF-alpha is reported as “no binding”.

B18: PLGF-PQS3 (structured_DNA)
DNA: GGGCCTCGCGGGCCAGTCGGGCGTCGCGGG
B18: in the data set with PLGF, the binding result was “no binding”.

B19: HGF-PQS9 (structured_DNA)
DNA: GGAAAGGAGGGGGCTGG
In the case of B19, the binding result with HGF was “no binding”.

B20: HGF-PQS3 (structured_DNA)
DNA: GGGGATGGCGATGGGGAGCAGG
In the case of B20, the binding result in the data set with HGF was “no binding”.

B21: HGF-PQS5 (ssDNA)
DNA: GGACGGGCTGGCGG
For B21, the binding result with HGF is “no binding”.

B22: HGF-PQS6 (structured_DNA)
DNA: GGAAGGGAGGAGCAAGG
Regarding B22, the binding result with HGF is reported as “no binding”.

B23: HGF-PQS4 (ssDNA)
DNA: GGGCTGGCAGGAGTTTGG
Regarding B23, in the data set with HGF, the binding result is recorded as “no binding”.

What is called Kd is the free concentration of one partner at which half of the binding sites on the other are occupied at equilibrium, for simple one-to-one binding. Read a low Kd as a tighter complex.

Values taken from publication PMC8080463.
